Assay results as given in patent US20250019454A1 (BIOCYTOGEN PHARMACEUTICALS BEIJING, published 2025).

Legend:
[1] = target: T1, ΔCRD4-TNFR2 protein (with CRD4 deletion), on CHO-S cells (human, UniProt P20333 23-461); assay: FACS on CHO-S cells with ΔCRD4-TNFR2, AF647 anti-human IgG Fc secondary
T1 construct: also called CHO-SΔCRD4-TNFR2; TNFR2 lacking CRD4
T1 sequence: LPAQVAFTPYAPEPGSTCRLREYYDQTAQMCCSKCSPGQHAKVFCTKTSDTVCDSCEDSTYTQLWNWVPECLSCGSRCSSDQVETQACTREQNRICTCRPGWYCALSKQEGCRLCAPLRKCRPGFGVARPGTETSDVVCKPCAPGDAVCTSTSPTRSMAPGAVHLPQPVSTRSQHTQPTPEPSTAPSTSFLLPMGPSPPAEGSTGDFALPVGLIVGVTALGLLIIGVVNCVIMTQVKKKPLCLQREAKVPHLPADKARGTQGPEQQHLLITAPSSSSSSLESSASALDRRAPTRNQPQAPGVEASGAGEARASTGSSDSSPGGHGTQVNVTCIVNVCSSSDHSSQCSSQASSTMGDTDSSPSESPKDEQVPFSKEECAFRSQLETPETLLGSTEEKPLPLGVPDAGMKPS
Excerpt: (§1) TNFR2 has four cysteine rich domains (CRD). In another experiment, FACS was used to detect the binding of anti-hTNFR2 antibodies to TNFR2 proteins with different structural domains. Secondary antibody (Alexa Fluor® 647 AffiniPure F(ab′) 2 Fragment Goat Anti-Human IgG, Fcγ fragment specific, Jackson ImmunoResearch Laboratories, Inc., Cat #: 151524) was used. The fluorescence-labeled secondary antibody can attach to the Fc region of the anti-hTNFR2 antibodies so that the anti-hTNFR2 antibodies that are bound to the ΔCRD cells can be detected by FACS. Specifically, ΔCRD1-TNFR2 protein (with CRD1 deleteion), ΔCRD2-TNFR2 protein (with CRD2 deleteion), ΔCRD3-TNFR2 protein (with CRD3 deleteion) or ΔCRD4-TNFR2 protein (with CRD4 deleteion) were expressed in CHO-S cells respectively, and then the binding between the cells and different anti-hTNFR2 antibodies was detected.

[2] = target: T2, ΔCRD2-TNFR2 protein (with CRD2 deletion), on CHO-S cells (human, UniProt P20333 23-461); assay: FACS on CHO-S cells with ΔCRD2-TNFR2, AF647 anti-human IgG Fc secondary
T2 construct: also called CHO-SΔCRD2-TNFR2
T2 sequence: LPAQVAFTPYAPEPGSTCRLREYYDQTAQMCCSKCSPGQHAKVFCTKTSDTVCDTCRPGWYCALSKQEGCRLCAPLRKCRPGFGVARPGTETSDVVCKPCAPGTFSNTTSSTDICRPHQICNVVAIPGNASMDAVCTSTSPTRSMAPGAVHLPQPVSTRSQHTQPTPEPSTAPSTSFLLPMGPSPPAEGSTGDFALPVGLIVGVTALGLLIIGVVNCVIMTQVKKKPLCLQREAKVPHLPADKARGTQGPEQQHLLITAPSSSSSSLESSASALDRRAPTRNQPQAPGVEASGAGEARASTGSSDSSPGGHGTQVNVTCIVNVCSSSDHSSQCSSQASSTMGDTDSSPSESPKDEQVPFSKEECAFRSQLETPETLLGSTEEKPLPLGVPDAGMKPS
Excerpt: as §1

[3] = target: T3, ΔCRD3-TNFR2 protein (with CRD3 deletion), on CHO-S cells (human, UniProt P20333 23-461); assay: FACS on CHO-S cells with ΔCRD3-TNFR2
T3 construct: also called CHO-SΔCRD3-TNFR2; TNFR2 lacking CRD3
T3 sequence: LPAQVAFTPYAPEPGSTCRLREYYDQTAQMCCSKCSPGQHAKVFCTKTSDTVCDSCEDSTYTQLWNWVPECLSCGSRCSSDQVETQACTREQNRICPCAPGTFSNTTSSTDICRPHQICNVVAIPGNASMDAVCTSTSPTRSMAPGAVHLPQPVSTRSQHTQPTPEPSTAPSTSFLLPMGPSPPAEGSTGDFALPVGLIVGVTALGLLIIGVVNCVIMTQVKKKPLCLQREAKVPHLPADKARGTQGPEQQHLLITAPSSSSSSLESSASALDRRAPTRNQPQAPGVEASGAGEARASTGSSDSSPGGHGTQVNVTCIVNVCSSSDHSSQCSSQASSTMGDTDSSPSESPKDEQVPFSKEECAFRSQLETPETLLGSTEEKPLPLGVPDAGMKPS
Excerpt: as §1

[4] = target: T4, ΔCRD1-TNFR2 protein (with CRD1 deletion), on CHO-S cells (human, UniProt P20333 23-461); assay: FACS on CHO-S cells with ΔCRD1-TNFR2, AF647 anti-human IgG Fc secondary
T4 construct: also called CHO-SΔCRD1-TNFR2
T4 sequence: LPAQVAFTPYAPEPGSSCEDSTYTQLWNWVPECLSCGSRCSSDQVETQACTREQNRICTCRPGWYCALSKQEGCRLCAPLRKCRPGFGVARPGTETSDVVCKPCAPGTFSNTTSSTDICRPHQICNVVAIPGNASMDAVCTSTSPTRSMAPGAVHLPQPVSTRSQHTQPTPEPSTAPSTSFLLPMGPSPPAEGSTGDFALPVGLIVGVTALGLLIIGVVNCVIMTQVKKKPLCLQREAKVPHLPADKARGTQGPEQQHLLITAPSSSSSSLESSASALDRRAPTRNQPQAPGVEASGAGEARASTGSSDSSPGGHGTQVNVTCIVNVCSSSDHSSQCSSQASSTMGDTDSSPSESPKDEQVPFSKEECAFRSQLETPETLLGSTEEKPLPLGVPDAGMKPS
Excerpt: as §1

[5] = target: T1, ΔCRD4-TNFR2 protein (with CRD4 …); assay: FACS on CHO-S cells with ΔCRD4-TNFR2
Excerpt: as §1

[6] = target: T3, ΔCRD3-TNFR2 protein (with CRD3 …); assay: FACS on CHO-S cells with ΔCRD3-TNFR2, AF647 anti-human IgG Fc secondary
Excerpt: as §1

B1: BC-1B6-IgG1-LALA (antibody, V domains shown)
VH: QVQLVESGGGVVQPGRSLRLSCAASGFTFSNFGMHWVRQAPGKGLEWVAVIWYEGSDKYYADSVKGRFTISRDNSKNTLYLQMNSLRAEDTAVYYCARDSSWGFLLYGMDVWGQGTTVTVSS
VL: DVVMTQSPLSLPVTLGQPASISCRSSRSLEYSDGNTYLNWFQQRPGQSPRRLIYKVSNRDSGVPDRFSGSGSGTAFTLKISGVEAEDVGVYYCMQGTHWPPTFGGGTKVEIK
positive rate of binding (% of cells) [1]: 0.83% | positive rate of binding (% of cells) [2]: 75.6% | binding result [3]: no binding | positive rate of binding (% of cells) [4]: 66.5% | binding result [5]: no binding | positive rate of binding (% of cells) [6]: 0.44%
